Measurements from article PMC9356133, “Regulatory mechanisms of lipopolysaccharide synthesis in Escherichia coli” (Nature Communications, 2022).

B1: LapB cytoplasmic domain (LapB_(cyto)) (domain or fragment, Escherichia coli strain CFT073, UniProt P0AB58 21-389, looked up)
chain: RRSAQQNKQDEANRLSRDYVAGVNFLLSNQQDKAVDLFLDMLKEDTGTVEAHLTLGNLFRSRGEVDRAIRIHQTLMESASLTYEQRLLAIQQLGRDYMAAGLYDRAEDMFNQLTDETDFRIGALQQLLQIYQATSEWQKAIDVAERLVKLGKDKQRVEIAHFYCELALQHMASDDLDRAMTLLKKGAAADKNSARVSIMMGRVFMAKGEYAKAVESLQRVISQDRELVSETLEMLQTCYQQLGKTAEWAEFLQRAVEENTGADAELMLADIIEARDGSEAAQVYITRQLQRHPTMRVFHKLMDYHLNEAEEGRAKESLMVLRDMVGEKVRSKPRYRCQKCGFTAYTLYWHCPSCRAWSTIKPIRGLDGL
B2: LpxC labeled with Atto488 (enzyme, Escherichia coli strain CFT073, UniProt P0A725 1-305, looked up)
chain: MIKQRTLKRIVQATGVGLHTGKKVTLTLRPAPANTGVIYRRTDLNPPVDFPADAKSVRDTMLCTCLVNEHDVRISTVEHLNAALAGLGIDNIVIEVNAPEIPIMDGSAAPFVYLLLDAGIDELNCAKKFVRIKETVRVEDGDKWAEFKPYNGFSLDFTIDFNHPAIDSSNQRYAMNFSADAFMRQISRARTFGFMRDIEYLQSRGLCLGGSFDCAIVVDDYRVLNEDGLRFEDEFVRHKMLDAIGDLFMCGHNIIGAFTAYKSGHALNNKLLQAVLAKQEAWEYVTFQDDAELPLAFKAPSAVLA
modifications: Atto488 dye (Atto488 protein labeling kit, protein to dye ratio of 6:1)
notes: LpxC, amplified from Escherichia coli strain CFT073 genomic DNA; His tag removed by 3C protease; also called LpxC-Atto488; source: E. coli BL21 Star (DE3) pLysS, purified (Ni-NTA, 3C cleavage, gel filtration), labeled with Atto488; not shown: His tag, N-terminal, cleaved

How the values were obtained:
[1] = biological target: B2; test: cell-based or functional assay
[2] = biological target: FtsH (non-tagged) (Escherichia coli strain CFT073, UniProt P0AAI3 1-644); test: cell-based or functional assay
[3] = biological target: B1; test: inhibition of a protease assay (Kd calculated from the IC50); 0.06 μM FtsH/LapB complex on POPC liposomes, 1.8 μM LpxC-Atto488, 0-12.96 μM LapB_(cyto) in solution, 37 °C, 20 min; Kd = (IC50 – 2KM/3)/2; details: both partners purified

Chain of FtsH (non-tagged) (P0AAI3 whole entry): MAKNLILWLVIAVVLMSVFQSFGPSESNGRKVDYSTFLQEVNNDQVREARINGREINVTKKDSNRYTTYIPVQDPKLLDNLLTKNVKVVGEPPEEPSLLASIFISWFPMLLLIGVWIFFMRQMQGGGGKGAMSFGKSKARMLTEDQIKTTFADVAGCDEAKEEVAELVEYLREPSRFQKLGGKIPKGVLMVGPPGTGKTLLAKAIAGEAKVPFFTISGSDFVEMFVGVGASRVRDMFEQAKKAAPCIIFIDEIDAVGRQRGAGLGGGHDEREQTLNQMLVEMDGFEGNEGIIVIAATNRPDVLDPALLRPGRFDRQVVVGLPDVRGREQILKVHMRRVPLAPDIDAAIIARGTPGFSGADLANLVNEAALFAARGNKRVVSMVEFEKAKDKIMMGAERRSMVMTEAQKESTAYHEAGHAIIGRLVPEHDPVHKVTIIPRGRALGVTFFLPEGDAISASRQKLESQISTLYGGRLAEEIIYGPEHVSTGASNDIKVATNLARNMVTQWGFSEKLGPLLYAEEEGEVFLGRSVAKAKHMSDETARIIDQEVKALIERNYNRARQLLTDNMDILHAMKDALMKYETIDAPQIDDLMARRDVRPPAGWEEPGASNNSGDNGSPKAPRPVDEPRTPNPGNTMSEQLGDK

Row | Binder | IC50 of inhibition of LpxC-Atto488 degradation by FtsH/LapB proteoliposomes (0-12.96 μM LapB_(cyto)) [1] [nM] | fold reduction by LapB of the KM for LpxC degradation by FtsH proteoliposomes [2] [fold] | Kd [3] [nM]
1 | B1 | 3960 |  | 
2 | B2 |  | ~8 | 1340
